The results in this text go back to paper PMC11118710, “GLP-1 and Its Derived Peptides Mediate Pain Relief Through Direct TRPV1 Inhibition Without Affecting Thermoregulation” (Research Square, 2024).

The target of this assay is human transient receptor potential vanilloid 1 (TRPV1) (human) (UniProt Q8NER1).
Sequence of human transient receptor potential vanilloid 1 (TRPV1) (human) (Q8NER1 whole entry): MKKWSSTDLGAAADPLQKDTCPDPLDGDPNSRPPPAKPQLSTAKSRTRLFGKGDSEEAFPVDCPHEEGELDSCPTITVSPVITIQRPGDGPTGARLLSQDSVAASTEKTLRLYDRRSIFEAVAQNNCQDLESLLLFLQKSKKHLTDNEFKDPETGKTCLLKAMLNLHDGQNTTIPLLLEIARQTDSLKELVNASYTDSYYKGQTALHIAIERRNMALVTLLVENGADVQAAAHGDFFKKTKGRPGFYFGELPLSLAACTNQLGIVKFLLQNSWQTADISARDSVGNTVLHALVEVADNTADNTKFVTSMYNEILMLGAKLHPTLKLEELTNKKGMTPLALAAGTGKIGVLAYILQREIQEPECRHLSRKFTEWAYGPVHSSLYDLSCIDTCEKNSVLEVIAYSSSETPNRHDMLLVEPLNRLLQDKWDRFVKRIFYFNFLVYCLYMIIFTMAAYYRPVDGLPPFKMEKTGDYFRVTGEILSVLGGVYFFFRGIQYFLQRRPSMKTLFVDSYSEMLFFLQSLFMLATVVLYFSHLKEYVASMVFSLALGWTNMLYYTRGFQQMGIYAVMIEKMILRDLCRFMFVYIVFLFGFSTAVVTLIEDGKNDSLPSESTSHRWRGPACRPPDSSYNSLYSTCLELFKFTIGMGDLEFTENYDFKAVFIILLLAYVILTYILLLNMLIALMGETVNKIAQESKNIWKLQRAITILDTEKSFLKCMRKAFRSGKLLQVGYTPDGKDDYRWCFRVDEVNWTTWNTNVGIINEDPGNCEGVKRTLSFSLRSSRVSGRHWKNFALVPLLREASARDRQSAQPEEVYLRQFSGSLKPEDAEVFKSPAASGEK

For the substance “exendin-4 (from UniProt P26349 48-87) (peptide)”, the IC50 of inhibition of the CAP (100 nM)-induced calcium response in CHO K1 cells expressing human TRPV1 was 62.2 nM.
